The target in assay [1] is human MUC1 (484 amino acids) on CHO-S-hMUC1 (484AA) cells (human) (UniProt P15941). In words: flow cytometry, transfected CHO-S cells.
In assay [2] the target is monkey EGFR on CHO-S-fasEGFR cells (monkey) (UniProt P55245). As to the kind of experiment: flow cytometry, transfected CHO-S cells.
Assay [3] has as its target human EGFR on CHO-S-hEGFR cells (human) (UniProt P00533). In words: flow cytometry, transfected CHO-S cells.
The target of assay [4] is monkey (Macaca fascicularis) MUC1 on CHO-S-fasMUC1 cells (monkey (Macaca fascicularis)). In words: flow cytometry, transfected CHO-S cells.
monkey (Macaca fascicularis) MUC1 on CHO-S-fasMUC1 cells (monkey (Macaca fascicularis)), sequence (chain, as listed by the source): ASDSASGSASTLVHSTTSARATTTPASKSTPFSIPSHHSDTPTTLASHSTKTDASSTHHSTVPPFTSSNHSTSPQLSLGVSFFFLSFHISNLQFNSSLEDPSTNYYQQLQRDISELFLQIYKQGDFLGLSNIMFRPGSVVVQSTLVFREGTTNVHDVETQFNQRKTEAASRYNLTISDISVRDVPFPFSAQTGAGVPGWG
The target in assay [5] is human MUC1 (484 amino acids) on CHO-S-hMUC1 (484AA) cells (human) (UniProt P15941). In words: flow cytometry, transfected CHO-S cells, secondary antibody only.
Assay [6] addresses monkey EGFR on CHO-S-fasEGFR cells (monkey) (UniProt P55245). The assay is described as above.
The target of assay [7] is human EGFR on CHO-S-hEGFR cells (human) (UniProt P00533). The assay is described as above.
The target of assay [8] is monkey (Macaca fascicularis) MUC1 on CHO-S-fasMUC1 cells (monkey (Macaca fascicularis)). The assay is described as above.

This passage reports Percentage of Positive Cells (%) results from US20260217860A1.

“isotype control (ISO), an antibody targeting an irrelevant target protein”: the Percentage of Positive Cells (%) in assay [1] came out at 4.05%; in assay [2], 0.58%; in assay [3] it was 0.7%; in assay [4], 1.15%.

For “secondary antibody anti-hIgG-Fc-Alex Flour 647 (RLI-H) (Jackson ImmunoResearch Laboratories, Inc., Cat #: 109-606-170)”, the Percentage of Positive Cells (%) was 2% in assay [5], 0.19% in assay [6], 0.66% in assay [7] and 0.91% in assay [8].
